{
  "source": "paper PMC12661925",
  "about": "(Structure (London, England : 1993), 2025)",
  "key": {"cryo-EM structure": {"target": "the molecule itself", "assay": "cryo-EM structure"}, "[1]": {"target": "T1, Cas1-2/3 integrase (StrepII-Cas1 + Cas2/3 fusion) (Pseudomonas aeruginosa PA14, UniProt Q02ML7;Q02ML8 1-324;1-1076)", "T1 sequence 1": "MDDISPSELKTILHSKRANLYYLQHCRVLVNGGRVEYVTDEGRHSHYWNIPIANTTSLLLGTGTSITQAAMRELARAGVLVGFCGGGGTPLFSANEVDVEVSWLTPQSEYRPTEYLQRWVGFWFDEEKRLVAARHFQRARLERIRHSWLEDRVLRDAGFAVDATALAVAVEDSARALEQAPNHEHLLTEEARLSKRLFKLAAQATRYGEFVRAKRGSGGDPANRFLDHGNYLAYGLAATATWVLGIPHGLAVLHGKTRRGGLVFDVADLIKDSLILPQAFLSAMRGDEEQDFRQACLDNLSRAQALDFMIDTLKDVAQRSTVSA", "T1 sequence 2": "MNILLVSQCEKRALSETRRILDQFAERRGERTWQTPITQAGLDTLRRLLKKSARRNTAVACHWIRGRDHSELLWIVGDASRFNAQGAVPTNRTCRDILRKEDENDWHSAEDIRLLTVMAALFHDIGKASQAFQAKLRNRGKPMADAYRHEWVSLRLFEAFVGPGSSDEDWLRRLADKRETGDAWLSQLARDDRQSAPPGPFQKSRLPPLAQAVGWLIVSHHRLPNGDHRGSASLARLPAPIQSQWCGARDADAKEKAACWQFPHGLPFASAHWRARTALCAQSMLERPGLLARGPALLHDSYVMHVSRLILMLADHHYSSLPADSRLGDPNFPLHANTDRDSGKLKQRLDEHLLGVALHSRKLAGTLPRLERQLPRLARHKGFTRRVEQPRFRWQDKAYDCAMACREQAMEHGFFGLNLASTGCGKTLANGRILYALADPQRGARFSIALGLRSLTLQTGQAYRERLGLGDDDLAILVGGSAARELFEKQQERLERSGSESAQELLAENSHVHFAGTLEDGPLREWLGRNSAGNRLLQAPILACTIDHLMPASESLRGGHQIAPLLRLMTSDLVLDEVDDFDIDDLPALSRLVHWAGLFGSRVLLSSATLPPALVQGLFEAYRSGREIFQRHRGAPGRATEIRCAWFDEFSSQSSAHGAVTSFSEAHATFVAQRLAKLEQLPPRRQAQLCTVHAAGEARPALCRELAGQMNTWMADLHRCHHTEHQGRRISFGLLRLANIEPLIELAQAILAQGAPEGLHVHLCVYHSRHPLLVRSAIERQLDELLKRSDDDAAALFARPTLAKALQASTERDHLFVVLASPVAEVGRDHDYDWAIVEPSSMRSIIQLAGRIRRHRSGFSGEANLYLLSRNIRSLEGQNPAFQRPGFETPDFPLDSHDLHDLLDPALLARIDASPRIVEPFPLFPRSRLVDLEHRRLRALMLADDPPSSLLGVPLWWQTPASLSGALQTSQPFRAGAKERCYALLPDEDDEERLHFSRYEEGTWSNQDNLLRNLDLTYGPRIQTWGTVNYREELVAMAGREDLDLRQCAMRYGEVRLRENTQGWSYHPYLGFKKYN", "assay": "cryo-EM"}, "[2]": {"target": "T1, Cas1-2/3 integrase (StrepII-Cas1 + …)", "assay": "cryo-EM", "remark": "listed apart in the source"}},
  "note": "Read-outs that look alike come from different tables or passages of the source.",
  "data": [
    {"binder": "Cas1 from the PA14 strain of Pseudomonas aeruginosa (type I-F), StrepII-tagged (enzyme, Pseudomonas aeruginosa (strain PA14)) MDDISPSELKTILHSKRANLYYLQHCRVLVNGGRVEYVTDEGRHSHYWNIPIANTTSLLLGTGTSITQAAMRELARAGVLVGFCGGGGTPLFSANEVDVEVSWLTPQSEYRPTEYLQRWVGFWFDEEKRLVAARHFQRARLERIRHSWLEDRVLRDAGFAVDATALAVAVEDSARALEQAPNHEHLLTEEARLSKRLFKLAAQATRYGEFVRAKRGSGGDPANRFLDHGNYLAYGLAATATWVLGIPHGLAVLHGKTRRGGLVFDVADLIKDSLILPQAFLSAMRGDEEQDFRQACLDNLSRAQALDFMIDTLKDVAQRSTVSA", "values": [
      {"measurement": "binding result", "setting": "cryo-EM structure", "result": "binds"}
    ]},
    {"binder": "Figure 3 foreign DNA, PAM on one strand (34/32 nt) (dsDNA) DNA 1: AAAAACCTGGACTACTACAACCTTCGCTTTTTGG DNA 2: TTTTTGCGAAGGTTGTAGTAGTCCAGGAAAAA", "values": [
      {"measurement": "binding result", "setting": "[1]", "result": "binds"}
    ]},
    {"binder": "Figures 4 and 5 foreign DNA without PAM (32/32 nt) (dsDNA) DNA 1: TACATGCTCTAGCAAAACGACTTGCACAACGA DNA 2: ATTAAGTGCAAGTCGTTTTGCTAGAGCTACAT", "values": [
      {"measurement": "binding result", "setting": "[2]", "result": "binds"}
    ]},
    {"binder": "Cas2/3 fusion protein from the PA14 strain of Pseudomonas aeruginosa (type I-F), untagged (enzyme, Pseudomonas aeruginosa (strain PA14)) MNILLVSQCEKRALSETRRILDQFAERRGERTWQTPITQAGLDTLRRLLKKSARRNTAVACHWIRGRDHSELLWIVGDASRFNAQGAVPTNRTCRDILRKEDENDWHSAEDIRLLTVMAALFHDIGKASQAFQAKLRNRGKPMADAYRHEWVSLRLFEAFVGPGSSDEDWLRRLADKRETGDAWLSQLARDDRQSAPPGPFQKSRLPPLAQAVGWLIVSHHRLPNGDHRGSASLARLPAPIQSQWCGARDADAKEKAACWQFPHGLPFASAHWRARTALCAQSMLERPGLLARGPALLHDSYVMHVSRLILMLADHHYSSLPADSRLGDPNFPLHANTDRDSGKLKQRLDEHLLGVALHSRKLAGTLPRLERQLPRLARHKGFTRRVEQPRFRWQDKAYDCAMACREQAMEHGFFGLNLASTGCGKTLANGRILYALADPQRGARFSIALGLRSLTLQTGQAYRERLGLGDDDLAILVGGSAARELFEKQQERLERSGSESAQELLAENSHVHFAGTLEDGPLREWLGRNSAGNRLLQAPILACTIDHLMPASESLRGGHQIAPLLRLMTSDLVLDEVDDFDIDDLPALSRLVHWAGLFGSRVLLSSATLPPALVQGLFEAYRSGREIFQRHRGAPGRATEIRCAWFDEFSSQSSAHGAVTSFSEAHATFVAQRLAKLEQLPPRRQAQLCTVHAAGEARPALCRELAGQMNTWMADLHRCHHTEHQGRRISFGLLRLANIEPLIELAQAILAQGAPEGLHVHLCVYHSRHPLLVRSAIERQLDELLKRSDDDAAALFARPTLAKALQASTERDHLFVVLASPVAEVGRDHDYDWAIVEPSSMRSIIQLAGRIRRHRSGFSGEANLYLLSRNIRSLEGQNPAFQRPGFETPDFPLDSHDLHDLLDPALLARIDASPRIVEPFPLFPRSRLVDLEHRRLRALMLADDPPSSLLGVPLWWQTPASLSGALQTSQPFRAGAKERCYALLPDEDDEERLHFSRYEEGTWSNQDNLLRNLDLTYGPRIQTWGTVNYREELVAMAGREDLDLRQCAMRYGEVRLRENTQGWSYHPYLGFKKYN", "values": [
      {"measurement": "binding result", "setting": "cryo-EM structure", "result": "binds"}
    ]},
    {"binder": "Figure 4 foreign DNA with PAM (34/34 nt) (dsDNA) DNA 1: TACATGCTCTAGCAAAACGACTTGCACAACGAGG DNA 2: CCATTAAGTGCAAGTCGTTTTGCTAGAGCTACAT", "values": [
      {"measurement": "binding result", "setting": "[2]", "result": "binds"}
    ]}
  ]
}
